Results: patent US20090035321A1, “Intercellular adhesion molecules and their binding ligands” (Boehringer Ingelheim Pharmaceuticals, Inc., published 2009)

What was measured:
[1] = target: Intercellular Adhesion Molecule-1 (ICAM-1), wild type, on the cell surface (human) (UniProt P05362)
[2] = target: ICAM-1 Y476/TAG (human) (UniProt P05362)
[3] = target: Intercellular Adhesion Molecule-1 (ICAM-1), wild type, on the cell surface (human) (UniProt P05362); remark: listed apart in the source
[4] = target: purified ICAM-1 (human) (UniProt P05362)
[5] = target: Lymphocyte Function-associated Antigen-1 (LFA-1), on cells (human) (UniProt P20701)
[6] = target: Lymphocyte Function-associated Antigen-1 (LFA-1), on cells (human) (UniProt P20701); remark: listed apart in the source
[7] = target: ICAM-1 A115N/SV (printed A155N/SV at paragraph 410) (human) (UniProt P05362); assay: 35S-HRV14 on COS cells
[8] = target: ICAM-1 N269QSQI/IQAEQ (human) (UniProt P05362); assay: 35S-HRV14 on COS cells
[9] = target: ICAM-1 S5/T (human) (UniProt P05362); assay: 35S-HRV14 on COS cells

monoclonal antibody RR1/1
% inhibition of PMA-stimulated PHA-lymphoblast aggregation [1]: 51 % inhibition
% of cells expressing ICAM-1 that bind LFA-1 in the presence of RR1/1 [2]: 0%
% of cells expressing ICAM-1 that bind LFA-1 in the presence of RR1/1 [3]: 0%
binding of JY cells to ICAM-1 in plastic-bound vesicles [4]: 97 % inhibition

anti-LFA-1 monoclonal antibody TS1/18
binding of JY cells to ICAM-1 in plastic-bound vesicles [5]: 96 % inhibition

anti-LFA-1 antibody R3.1
% inhibition of the mixed lymphocyte reaction [6]: 93 % inhibition

human rhinovirus 14 (HRV14) (from UniProt P03303)
HRV Binding % (% of wild type) [7]: 12
HRV Binding % (% of wild type) [8]: 108
HRV Binding % (% of wild type) [9]: 125
